Several values for one entry are separate records, joined by “and”; a condition that tells them apart may be missing. Equal entries are not always repeated.

Results on four substances are retold here after patent US20260116991A1.

Assay [1] addresses human GPC3-His protein (human) (UniProt P51654). Briefly: ELISA, coated human GPC3, antibody 0.0001 nM. A general note: ELISA stands for enzyme-linked immunosorbent assay.
For assay [2] the target is unchanged. Briefly: ELISA, coated human GPC3, antibody 10 nM.
Assay [3] has the same target. Description: ELISA, coated human GPC3, antibody 100 nM.
The target in assay [4] is GPC3 endogenously expressed on HepG2 cells (UniProt P51654). Briefly: FACS on HepG2 cells.
Assay [5] has as its target human GPC3-His protein (human) (UniProt P51654). Description: ELISA, coated human GPC3, antibody 0.1 nM.
Assay [6] shares this target. Briefly: ELISA, coated human GPC3, antibody 0.01 nM.
Assay [7] has the same target. Description: ELISA, coated human GPC3, antibody 1 nM.
Assay [8] has the same target. Briefly: ELISA, coated human GPC3, antibody 0.001 nM.
Assay [9] concerns the target human GPC3 expressed on CHO-K1 recombinant cells (human) (UniProt P51654). Description: FACS on CHO-K1 clone CHOK1-hGPC3.3E9.
For assay [10] the target is unchanged. Briefly: FACS on CHO-K1 clone CHOK1-hGPC3.2B5.
For assay [11] the target is unchanged. Description: FACS on CHO-K1 clone CHOK1-hGPC3.1C3.
Assay [12] has as its target murine GPC3-His protein (Sino Biological, Cat. No. 50989-M08B) (murine) (UniProt Q8CFZ4). Briefly: ELISA, coated murine GPC3-His.
The target of assay [13] is GPC3 expressed endogenously on HepG2 cells (UniProt P51654). Description: FACS on HepG2 cells, control in the row of Y035.
The target in assay [14] is human GPC3-His protein (Acro, Cat. No. GP3-H52H4) (human) (UniProt P51654). Description: ELISA, coated human GPC3-His.
In assay [15] the target is monkey GPC3-His protein (Acro, Cat. No. GP3-C5225) (monkey). Briefly: ELISA, coated monkey GPC3-His.
Assay [16] concerns the target GPC3 expressed endogenously on HepG2 cells (UniProt P51654). Description: FACS on HepG2 cells, control in the row of T2-23.
The target of assay [17] is GPC3 on HepG2 cells (human) (UniProt P51654). Briefly: FACS on HepG2 cells.

Sequence of murine GPC3-His protein (Sino Biological, Cat. No. 50989-M08B) (murine) (Q8CFZ4 25-558 limits assumed): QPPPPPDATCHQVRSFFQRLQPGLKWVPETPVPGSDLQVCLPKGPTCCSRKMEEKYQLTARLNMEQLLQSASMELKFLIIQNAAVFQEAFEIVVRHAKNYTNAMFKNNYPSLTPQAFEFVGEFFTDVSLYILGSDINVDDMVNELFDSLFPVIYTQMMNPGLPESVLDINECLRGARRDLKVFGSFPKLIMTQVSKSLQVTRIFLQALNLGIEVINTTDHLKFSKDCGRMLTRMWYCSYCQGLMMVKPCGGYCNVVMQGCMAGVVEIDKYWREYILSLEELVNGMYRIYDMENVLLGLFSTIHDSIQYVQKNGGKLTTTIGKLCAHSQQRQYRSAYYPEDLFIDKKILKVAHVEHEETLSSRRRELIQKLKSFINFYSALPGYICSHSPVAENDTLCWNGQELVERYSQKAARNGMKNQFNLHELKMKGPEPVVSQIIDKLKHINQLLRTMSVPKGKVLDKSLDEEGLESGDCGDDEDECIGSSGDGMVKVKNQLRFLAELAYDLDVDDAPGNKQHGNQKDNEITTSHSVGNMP

Consider “hIgG1 (IgG subtype control, human IgG1) (antibody)”, for which the OD450 nm in [1] turned out to be 0.09 OD450; in assay [2] it was 0.09 OD450; in assay [3], 0.11 OD450; in assay [5], 0.09 OD450; in assay [6] it was 0.09 OD450; in assay [7], 0.09 OD450. Besides, the OD450 nm in assay [8] amounted to 0.09 OD450. The Max MFI in assay [4] is 154 MFI and 258 MFI and 110 MFI.
For hIgG1 (antibody), the Mean fluorescence intensity of cells in assay [9] amounted to 19.3 MFI. In addition, the Mean fluorescence intensity of cells in [10] is 19.3 MFI. In assay [11], the Mean fluorescence intensity of cells is 19.3 MFI. In assay [12], this substance registered an OD450 at 0.0001 nM antibody of 0.049 OD450, an OD450 at 0.001 nM antibody of 0.051 OD450, an OD450 at 0.01 nM antibody of 0.052 OD450 and an OD450 at 0.1 nM antibody of 0.05 OD450. In assay [12], this substance had an OD450 at 1 nM antibody of 0.05 OD450, an OD450 at 10 nM antibody of 0.055 OD450 and an OD450 at 100 nM antibody of 0.105 OD450. The substance also displayed a Mean fluorescence intensity of cells in [13] of 137 MFI. In addition, in [14], the OD450 at 0.0001 nM antibody amounted to 0.047 OD450, the OD450 at 0.001 nM antibody came out at 0.048 OD450, the OD450 at 0.01 nM antibody was 0.048 OD450 and the OD450 at 0.1 nM antibody was determined as 0.05 OD450. Moreover, in assay [14], the OD450 at 1 nM antibody is 0.048 OD450, the OD450 at 10 nM antibody amounted to 0.05 OD450 and the OD450 at 100 nM antibody was determined as 0.072 OD450. In [15], this substance showed an OD450 at 0.0001 nM antibody of 0.048 OD450, an OD450 at 0.001 nM antibody of 0.044 OD450, an OD450 at 0.01 nM antibody of 0.044 OD450 and an OD450 at 0.1 nM antibody of 0.045 OD450. In [15], this substance returned an OD450 at 1 nM antibody of 0.044 OD450, an OD450 at 10 nM antibody of 0.047 OD450 and an OD450 at 100 nM antibody of 0.056 OD450. Also, the Mean fluorescence intensity of cells in [16] stood at 137 MFI.
In [12], hIgG1 control (antibody) yielded an OD450 at 0.0001 nM antibody of 0.06 OD450 nm, an OD450 at 0.001 nM antibody of 0.05 OD450 nm, an OD450 at 0.01 nM antibody of 0.05 OD450 nm and an OD450 at 0.1 nM antibody of 0.06 OD450 nm. In assay [12], this substance yielded an OD450 at 1 nM antibody of 0.05 OD450 nm, an OD450 at 10 nM antibody of 0.06 OD450 nm and an OD450 at 100 nM antibody of 0.12 OD450 nm.
hIgG (antibody) registered a Max MFI in assay [17] of 58.8.
